# In patent US20250084142A1 (INTARCIA THERAPEUTICS, published 2025):
# Starred links: 1 amine or outer side, 2 acyl side, 3 side chain; linkers in the order of their positions; H or OH if unused. Non-standard residues stand in square brackets, D forms with d. Groups on a side chain read outwards from the residue. No end group written: not given here. *: point of attachment. C20 diacid = O=C(O)CCCCCCCCCCCCCCCCCCC(=O)*; Phe(4-F) = N[C@@H](Cc1ccc(F)cc1)C(=O)O; Phe(4-Me) = Cc1ccc(C[C@H](N)C(=O)O)cc1; γGlu = O=C(O)[C@H](CCC(=O)[*:2])N[*:1]; NMeY = CN[C@@H](Cc1ccc(O)cc1)C(=O)O; hPhe = N[C@@H](CCc1ccccc1)C(=O)O
# T1: NPY2R
# T1 sequence (P49146 1-381, species assumed, looked up): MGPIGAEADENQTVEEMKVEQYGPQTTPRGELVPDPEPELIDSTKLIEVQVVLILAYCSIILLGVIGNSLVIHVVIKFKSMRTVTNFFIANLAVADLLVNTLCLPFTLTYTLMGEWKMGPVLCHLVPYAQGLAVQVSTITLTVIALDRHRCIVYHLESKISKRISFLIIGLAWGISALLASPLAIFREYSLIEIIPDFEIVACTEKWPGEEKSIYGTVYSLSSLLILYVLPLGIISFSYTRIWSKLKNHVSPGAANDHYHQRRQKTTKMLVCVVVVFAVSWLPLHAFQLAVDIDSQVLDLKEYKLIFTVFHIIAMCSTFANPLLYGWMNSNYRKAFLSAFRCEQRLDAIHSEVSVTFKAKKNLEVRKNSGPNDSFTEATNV
# T2: NPY5R
# T2 sequence (Q15761 1-445, species assumed, looked up): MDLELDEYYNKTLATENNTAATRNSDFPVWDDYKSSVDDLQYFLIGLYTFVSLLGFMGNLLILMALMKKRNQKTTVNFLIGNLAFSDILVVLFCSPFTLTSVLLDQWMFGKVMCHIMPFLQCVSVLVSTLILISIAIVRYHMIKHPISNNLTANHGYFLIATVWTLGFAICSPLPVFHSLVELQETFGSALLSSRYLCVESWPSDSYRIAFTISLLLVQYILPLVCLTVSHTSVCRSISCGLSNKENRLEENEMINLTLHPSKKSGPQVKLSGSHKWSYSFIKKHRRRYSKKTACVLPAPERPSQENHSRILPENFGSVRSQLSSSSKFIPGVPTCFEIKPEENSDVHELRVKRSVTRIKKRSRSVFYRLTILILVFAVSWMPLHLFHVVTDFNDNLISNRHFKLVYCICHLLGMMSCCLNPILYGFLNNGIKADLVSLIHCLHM
# B1: Compound A55 (peptide)
# peptide: PKPEAPGKDASPEEWK([γGlu-γGlu-C20 diacid])RYYADLRHYLNWLTRQRF-NH2
# modifications: N-terminus assumed
# SMILES: CC(C)C[C@H](NC(=O)[C@H](CC(=O)O)NC(=O)[C@H](C)NC(=O)[C@H](Cc1ccc(O)cc1)NC(=O)[C@H](Cc1ccc(O)cc1)NC(=O)[C@H](CCCNC(=N)N)NC(=O)[C@H](CCCCNC(=O)CC[C@H](NC(=O)CC[C@H](NC(=O)CCCCCCCCCCCCCCCCCCC(=O)O)C(=O)O)C(=O)O)NC(=O)[C@H](Cc1c[nH]c2ccccc12)NC(=O)[C@H](CCC(=O)O)NC(=O)[C@H](CCC(=O)O)NC(=O)[C@@H]1CCCN1C(=O)[C@H](CO)NC(=O)[C@H](C)NC(=O)[C@H](CC(=O)O)NC(=O)[C@H](CCCCN)NC(=O)CNC(=O)[C@@H]1CCCN1C(=O)[C@H](C)NC(=O)[C@H](CCC(=O)O)NC(=O)[C@@H]1CCCN1C(=O)[C@H](CCCCN)NC(=O)[C@@H]1CCCN1)C(=O)N[C@@H](CCCNC(=N)N)C(=O)N[C@@H](Cc1c[nH]cn1)C(=O)N[C@@H](Cc1ccc(O)cc1)C(=O)N[C@@H](CC(C)C)C(=O)N[C@@H](CC(N)=O)C(=O)N[C@@H](Cc1c[nH]c2ccccc12)C(=O)N[C@@H](CC(C)C)C(=O)N[C@H](C(=O)N[C@@H](CCCNC(=N)N)C(=O)N[C@@H](CCC(N)=O)C(=O)N[C@@H](CCCNC(=N)N)C(=O)N[C@@H](Cc1ccccc1)C(N)=O)[C@@H](C)O
# B2: Compound A63 (peptide)
# peptide: PKPEAPK([γGlu-γGlu-C20 diacid])KDASPEELNRYYADARHYLNWLTRQR[NMeY]-NH2
# modifications: N-terminus assumed
# SMILES: CC(C)C[C@H](NC(=O)[C@H](Cc1ccc(O)cc1)NC(=O)[C@H](Cc1c[nH]cn1)NC(=O)[C@H](CCCNC(=N)N)NC(=O)[C@H](C)NC(=O)[C@H](CC(=O)O)NC(=O)[C@H](C)NC(=O)[C@H](Cc1ccc(O)cc1)NC(=O)[C@H](Cc1ccc(O)cc1)NC(=O)[C@H](CCCNC(=N)N)NC(=O)[C@H](CC(N)=O)NC(=O)[C@H](CC(C)C)NC(=O)[C@H](CCC(=O)O)NC(=O)[C@H](CCC(=O)O)NC(=O)[C@@H]1CCCN1C(=O)[C@H](CO)NC(=O)[C@H](C)NC(=O)[C@H](CC(=O)O)NC(=O)[C@H](CCCCN)NC(=O)[C@H](CCCCNC(=O)CC[C@H](NC(=O)CC[C@H](NC(=O)CCCCCCCCCCCCCCCCCCC(=O)O)C(=O)O)C(=O)O)NC(=O)[C@@H]1CCCN1C(=O)[C@H](C)NC(=O)[C@H](CCC(=O)O)NC(=O)[C@@H]1CCCN1C(=O)[C@H](CCCCN)NC(=O)[C@@H]1CCCN1)C(=O)N[C@@H](CC(N)=O)C(=O)N[C@@H](Cc1c[nH]c2ccccc12)C(=O)N[C@@H](CC(C)C)C(=O)N[C@H](C(=O)N[C@@H](CCCNC(=N)N)C(=O)N[C@@H](CCC(N)=O)C(=O)N[C@@H](CCCNC(=N)N)C(=O)N(C)[C@@H](Cc1ccc(O)cc1)C(N)=O)[C@@H](C)O
# B3: Compound A64 (peptide)
# peptide: PKPEAPK([γGlu-γGlu-C20 diacid])KDASPEELNRYYADARHYLNWLTRQRF-NH2
# modifications: N-terminus assumed
# SMILES: CC(C)C[C@H](NC(=O)[C@H](Cc1ccc(O)cc1)NC(=O)[C@H](Cc1c[nH]cn1)NC(=O)[C@H](CCCNC(=N)N)NC(=O)[C@H](C)NC(=O)[C@H](CC(=O)O)NC(=O)[C@H](C)NC(=O)[C@H](Cc1ccc(O)cc1)NC(=O)[C@H](Cc1ccc(O)cc1)NC(=O)[C@H](CCCNC(=N)N)NC(=O)[C@H](CC(N)=O)NC(=O)[C@H](CC(C)C)NC(=O)[C@H](CCC(=O)O)NC(=O)[C@H](CCC(=O)O)NC(=O)[C@@H]1CCCN1C(=O)[C@H](CO)NC(=O)[C@H](C)NC(=O)[C@H](CC(=O)O)NC(=O)[C@H](CCCCN)NC(=O)[C@H](CCCCNC(=O)CC[C@H](NC(=O)CC[C@H](NC(=O)CCCCCCCCCCCCCCCCCCC(=O)O)C(=O)O)C(=O)O)NC(=O)[C@@H]1CCCN1C(=O)[C@H](C)NC(=O)[C@H](CCC(=O)O)NC(=O)[C@@H]1CCCN1C(=O)[C@H](CCCCN)NC(=O)[C@@H]1CCCN1)C(=O)N[C@@H](CC(N)=O)C(=O)N[C@@H](Cc1c[nH]c2ccccc12)C(=O)N[C@@H](CC(C)C)C(=O)N[C@H](C(=O)N[C@@H](CCCNC(=N)N)C(=O)N[C@@H](CCC(N)=O)C(=O)N[C@@H](CCCNC(=N)N)C(=O)N[C@@H](Cc1ccccc1)C(N)=O)[C@@H](C)O
# B4: Compound A4 (peptide)
# peptide: K([γGlu-γGlu-C20 diacid])PKPEAPGKDASPEEWNRYYADARHYLNWLTRQR[NMeY]-NH2
# modifications: N-terminus assumed
# SMILES: CC(C)C[C@H](NC(=O)[C@H](Cc1ccc(O)cc1)NC(=O)[C@H](Cc1c[nH]cn1)NC(=O)[C@H](CCCNC(=N)N)NC(=O)[C@H](C)NC(=O)[C@H](CC(=O)O)NC(=O)[C@H](C)NC(=O)[C@H](Cc1ccc(O)cc1)NC(=O)[C@H](Cc1ccc(O)cc1)NC(=O)[C@H](CCCNC(=N)N)NC(=O)[C@H](CC(N)=O)NC(=O)[C@H](Cc1c[nH]c2ccccc12)NC(=O)[C@H](CCC(=O)O)NC(=O)[C@H](CCC(=O)O)NC(=O)[C@@H]1CCCN1C(=O)[C@H](CO)NC(=O)[C@H](C)NC(=O)[C@H](CC(=O)O)NC(=O)[C@H](CCCCN)NC(=O)CNC(=O)[C@@H]1CCCN1C(=O)[C@H](C)NC(=O)[C@H](CCC(=O)O)NC(=O)[C@@H]1CCCN1C(=O)[C@H](CCCCN)NC(=O)[C@@H]1CCCN1C(=O)[C@@H](N)CCCCNC(=O)CC[C@H](NC(=O)CC[C@H](NC(=O)CCCCCCCCCCCCCCCCCCC(=O)O)C(=O)O)C(=O)O)C(=O)N[C@@H](CC(N)=O)C(=O)N[C@@H](Cc1c[nH]c2ccccc12)C(=O)N[C@@H](CC(C)C)C(=O)N[C@H](C(=O)N[C@@H](CCCNC(=N)N)C(=O)N[C@@H](CCC(N)=O)C(=O)N[C@@H](CCCNC(=N)N)C(=O)N(C)[C@@H](Cc1ccc(O)cc1)C(N)=O)[C@@H](C)O
# Target: T1, NPY2R
# Experiment: cell-based or functional assay
row,Binder,NPY2R pEC50
1,B1,"8.9 -Log(EC50, M)"
2,PKPEAPGK([γGlu-γGlu-C20 diacid])DASPEEWNRYYADLRHYLNWLTRQR[Phe(4-Me)]-NH2 [Compound A58],"10.3 -Log(EC50, M)"
3,PKPEAPGK([γGlu-γGlu-C20 diacid])DASPEEWNRYYADLRHYLNWLTRQR[Phe(4-F)]-NH2 [Compound A60],"10.3 -Log(EC50, M)"
4,PKPEAPGK([γGlu-γGlu-C20 diacid])DASPEEWNRYYADLRHYLNWLTRQR[hPhe]-NH2 [Compound A61],"10 -Log(EC50, M)"
5,B2,"7.5 -Log(EC50, M)"
6,B3,"8.6 -Log(EC50, M)"
7,B4,"8.7 -Log(EC50, M)"
8,PKPEAPGK([γGlu-γGlu-C20 diacid])DKSPEEWNRYYKDLRHYLNWLTRQRF-NH2 [Compound A66],"10.3 -Log(EC50, M)"
9,PKPEAPGK([γGlu-γGlu-C20 diacid])DASPEKWNRYYKDLRHYLNWLTRQRF-NH2 [Compound A67],"10.3 -Log(EC50, M)"
10,PKPEAPGK([γGlu-γGlu-C20 diacid])DASPEEWNRKYKDLRHYLNWLTRQRF-NH2 [Compound A68],"9.7 -Log(EC50, M)"

# Target: T2, NPY5R
# Experiment: cell-based or functional assay
row,Binder,NPY5R pEC50
1,B1,"7.7 -Log(EC50, M)"
2,PKPEAPGK([γGlu-γGlu-C20 diacid])DASPEEWNRYYADLRHYLNWLTRQR[Phe(4-Me)]-NH2 [Compound A58],"8.8 -Log(EC50, M)"
3,PKPEAPGK([γGlu-γGlu-C20 diacid])DASPEEWNRYYADLRHYLNWLTRQR[Phe(4-F)]-NH2 [Compound A60],"8.6 -Log(EC50, M)"
4,PKPEAPGK([γGlu-γGlu-C20 diacid])DASPEEWNRYYADLRHYLNWLTRQR[hPhe]-NH2 [Compound A61],"8.3 -Log(EC50, M)"
5,B2,"6 -Log(EC50, M)"
6,B3,"7.9 -Log(EC50, M)"
7,B4,"7.3 -Log(EC50, M)"
8,PKPEAPGK([γGlu-γGlu-C20 diacid])DKSPEEWNRYYKDLRHYLNWLTRQRF-NH2 [Compound A66],"8.3 -Log(EC50, M)"
9,PKPEAPGK([γGlu-γGlu-C20 diacid])DASPEKWNRYYKDLRHYLNWLTRQRF-NH2 [Compound A67],"8.5 -Log(EC50, M)"
10,PKPEAPGK([γGlu-γGlu-C20 diacid])DASPEEWNRKYKDLRHYLNWLTRQRF-NH2 [Compound A68],"7.9 -Log(EC50, M)"
